Measured values published in the emibetuzumab library of Makowski et al. (2022).

B1: VH:VL chains; a variant is named by its letters at X, in order (parent)
chain 1: QVQLVQSGAEVKKPGASVKVSCKASGYTFTDYXMHWVRQAPGQGLEWMGXVNPNXXXTTYNQKFEGRVTMTTDTSTSTAYMELRSLRSDDTAVYYCARXNXLDXWGQGTTVTVSS
chain 2: DIQMTQSPSSLSASVGDRVTITCSVSSSVSSIYLHWYQQKPGKAPKLLIYSTSNLASGVPSRFSGSGSGTDFTLTISSLQPEDFATYYCQVYSGYPLTFGGGTKVEIK

Variants of: B1
Test: yeast display scFab, FACS + sequencing
Method in brief: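 The non-specific binding call was based on sorted and sequenced yeast displaying a heavy-chain CDR mutant scFab library. Labelling used anti-Myc with biotinylated ovalbumin (260 μg/mL in PBSB, 3 h, room temperature) or soluble membrane proteins (130 μg/mL, 20 min on ice), and FACS collected the top 25% and bottom 10% of binders in two replicates. Positive meant present in ≥3 of 4 pooled positive samples and in no negatives, and negative meant the converse.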

Row | Variant | non-specific binding call
1 | FKKKDASV | binds
2 | SKKRGSGA | binds
3 | SKTRGAGV | binds
4 | VKRGSSVD | binds
5 | VRAGADGV | no binding
6 | YKRKSASD | binds
7 | YKRRDSVD | binds
8 | YKTGDSWV | no binding
9 | YKRGDASS | no binding
10 | SKTRGAWD | binds
11 | FKRRSVGA | binds
12 | FKKGSSGV | binds
13 | FKKGSSGD | binds
14 | FKKGSFGA | binds
15 | SKKRGSWD | binds
16 | DKTKSDWV | no binding
17 | YRAAGDVA | no binding
18 | YKRGSSVS | binds
19 | YKRGSSVD | binds
20 | YKRGSSVV | binds
21 | YKRGSSWD | binds
22 | YRAESAAA | binds
23 | FKTESAAV | binds
24 | FKTKDSVV | binds
25 | YKRGSDGA | binds

Row | Variant | non-specific binding call
26 | YKTKGSSY | binds
27 | VKTKGVVD | binds
28 | SKRKSSSD | binds
29 | FKKGSYVF | binds
30 | FKRGDAGD | binds
31 | FKRRSFGS | binds
32 | SKKRGAAA | binds
33 | VKRATSWD | binds
34 | SKTKSDGS | no binding
35 | SKTKSDGV | no binding
36 | SKTKSDGA | no binding
37 | SKTKSSGA | no binding
38 | YKTGSSWD | binds
39 | AKTKSDVA | no binding
40 | FKRKNSAA | binds
41 | ARAETDVY | no binding
42 | VKRATVLA | binds
43 | FKKGSAVV | binds
44 | FKKGSAVA | binds
45 | FKRRSSGD | binds
46 | VKKTGSGA | binds
47 | AKTRDDVA | no binding
48 | YKRRDASD | binds
49 | YKRAAYGD | binds
50 | YRAEGSSS | binds

Row | Variant | non-specific binding call
51 | YKRESAAV | binds
52 | VKTGGAGA | no binding
53 | SKRRSVGA | binds
54 | VKKESDSY | no binding
55 | YRAAGSWS | binds
56 | DKREADVA | no binding
57 | YKRGGAGS | binds
58 | YKRGSFGA | binds
59 | FKKGSSWD | binds
60 | FKTKNYAD | binds
61 | YKRGDDSS | no binding
62 | YKTRSSAD | binds
63 | SKKRGASA | binds
64 | FKRGSSLF | binds
65 | FKRGSSLD | binds
66 | FKTRDFAY | binds
67 | VRAEGSSV | no binding
68 | FRAEGSVA | binds
69 | VRAEGSVA | binds
70 | YKKRGAGV | binds
71 | DRAETDVY | no binding
72 | YKRGDDGD | no binding
73 | YRAGAAVA | binds
74 | AKKRGAWS | binds
75 | YMAEGSGA | binds

Row | Variant | non-specific binding call
76 | AKTRDFVA | binds
77 | VKRGDDVA | no binding
78 | VKRGDDVV | no binding
79 | YKTKSDWV | no binding
80 | ARAAGDVF | no binding
81 | SKRRGSLS | binds
82 | FKRRSASV | binds
83 | VRAGAAGV | binds
84 | VRAGAAGS | no binding
85 | AKTKSDWV | no binding
86 | YRAAGAGS | binds
87 | YKKGSSLF | binds
88 | YKTGGSGA | binds
89 | FKKGDAVS | binds
90 | YKRGDAVF | no binding
91 | SKKTGSVD | no binding
92 | FKTGDAWS | binds
93 | FKRGSSSY | binds
94 | YKRGDAWA | no binding
95 | YKRGDAWD | no binding
96 | DKRKGVAF | binds
97 | YKTESYWY | binds
98 | YKTGGALY | no binding
99 | DKTGDSAD | no binding
100 | YKRGGAVV | binds

Row | Variant | non-specific binding call
101 | VKTGGSLD | no binding
102 | VKKRGAWS | binds
103 | FKRGSSAA | binds
104 | YKREGSAV | no binding
105 | YKRGGSWD | binds
106 | SKRETAWS | binds
107 | VKRRSSLA | binds
108 | VKRRSVGA | binds
109 | YKKGGSGV | binds
110 | YKTGGAGV | binds
111 | VKRGSSLF | binds
112 | YKTRSAWS chain 1 M48I | binds
113 | YKKGGSLD | binds
114 | YKKGGSLA | binds
115 | DKTGDDGS | no binding
116 | YRAAGSGA | binds
117 | YKTGGASS | binds
118 | DKRKGVSD chain 1 S88F | binds
119 | SKTKSDWA | no binding
120 | YRAEGAWS | binds
121 | YKRGGSSY | no binding
122 | DKTKGDWV | no binding
123 | YKRGSSGD | binds
124 | YKRGSSGA | binds
125 | YKRGSSGF | binds

Row | Variant | non-specific binding call
126 | VRAGADAV | no binding
127 | SKTKSSSA | no binding
128 | AKRGSAAV | binds
129 | VKTGGDGD | no binding
130 | FRAEGSLD | binds
131 | AKRGAFAD | binds
132 | YKRESSSV | binds
133 | FKTKNYVV | binds
134 | SKTRAFVA | binds
135 | FKRAGSLA | binds
136 | YRAESSGV | binds
137 | FKRRDSVY | binds
138 | YKTKSDGV | no binding
139 | FKKRGAWS | binds
140 | SKKRGAWA | binds
141 | SKKRGAWY | binds
142 | VRAEASVV | binds
143 | FKTKSDAV | no binding
144 | DKTGDAAV | no binding
145 | FKKGSSLD | binds
146 | FKKGSAAV | binds
147 | VKKGSSLF | binds
148 | YKRRDAVY | binds
149 | YKRGSAVD | binds
150 | YKTRGAVS | binds

Row | Variant | non-specific binding call
151 | YKKRGAWS | binds
152 | ARAAGDWV | no binding
153 | YKKTGDLY | no binding
154 | DKKKDVVF | binds
155 | FKRKAAAA | binds
156 | VKRGSFVD | binds
157 | AKTGNDVA | no binding
158 | YKKTGYWV | binds
159 | YKRRGSAA | binds
160 | FKTAGSAV chain 1 R67H | binds
161 | YKRGAAWS | binds
162 | VKTGGAVV | no binding
163 | YKRGSSSD | binds
164 | YKRGSSSY | binds
165 | YKTRGSAD | binds
166 | YKTRGSAA | binds
167 | YKRGGAAA | binds
168 | YRAETDGV | no binding
169 | FKTKSAGD | no binding
170 | VKRGSSSD | binds
171 | YKRGGSGD | binds
172 | VKRRDSGD | binds
173 | VRAETDVY | no binding
174 | FKTGGAAV | binds
175 | VKRGSSAA | binds

Row | Variant | non-specific binding call
176 | FKKGSSAA | binds
177 | YKRGASLA | binds
178 | YKRGAAGD | binds
179 | YKTRSAVA | binds
180 | YKKGAAGF | binds
181 | VKTGGDVA | no binding
182 | VKTGGDVF | no binding
183 | VKTGGDVY | no binding
184 | YKRRSASA | binds
185 | AKTKSDGV | no binding
186 | SKTKSDAV | no binding
187 | YKTRGSLD | binds
188 | VKRGSAAV | binds
189 | VKRGSAAA | binds
190 | YKRRNSGD | binds
191 | VKREASVV | binds
192 | YRAEGALD | binds
193 | YKRGSAAA | binds
194 | DKTGNDVV | no binding
195 | DKTGNDVA | no binding
196 | YKRGASVA | binds
197 | YKTGDDGV | no binding
198 | SKKGDFWV | binds
199 | ARAASAGA | binds
200 | YKRGDAGY | no binding

Row | Variant | non-specific binding call
201 | DKREADGA | no binding
202 | YRAGAASD | binds
203 | VKKESSGF | binds
204 | DKTGDDVF | no binding
205 | YKRGSFVD | binds
206 | YKRGSAWD | binds
207 | YKRGSAWV | binds
208 | FKTEGFVS | binds
209 | VKRGSSGD | binds
210 | VKRGSSGA | binds
211 | VKKTGDLY | no binding
212 | YKRGDDLV | no binding
213 | VKTGGAWY | no binding
214 | SKKTGDLY | no binding
215 | YKRGSAGF | binds
216 | YKRGSAGD | binds
217 | YKRRDFGV | binds
218 | YRAEGYVV | binds
219 | YKRGDSGF | no binding
220 | VKREAVGV | binds
221 | YKRRDAWV | binds
222 | YKRGSASD | binds
223 | YKRGSASV | binds
224 | AKTGDSSD | no binding
225 | YKTRGFGA | binds

Row | Variant | non-specific binding call
226 | YKRAAVWD | binds
227 | FKKGSVGD | binds
228 | SKRKSSGA | binds
229 | YKTGDSVD | no binding
230 | YKTRDDAV | no binding
231 | YKRRSSVF | binds
232 | YKRESAGY | binds
233 | YKRGDSSS | no binding
234 | YKTGNDVA | no binding
235 | VRAGADSV | no binding
236 | VKTGGSWA | no binding
237 | VKTGGSWV | no binding
238 | YRAETDVA | no binding
239 | SKTKSSAS | no binding
240 | SKTKSDVV | no binding
241 | SKTKSDVA | no binding
242 | SKTKSDVD | no binding
243 | YKTRGAGD chain 1 Q43R | no binding
244 | YKTGGDGV | no binding
